In patent publication US20220411483A1 (Chugai, published 2022):
Changes are numbered by the printed parent chain. Numbers in names are those of the source. Like-named read-outs stand apart in the source and are kept apart here. One block for each binder: values may come before it.

Assays:
[1] = target: T1, FcγRIIa R type extracellular domain, His tag (human, UniProt P12318 34-217); assay: SPR, bound amount per captured antibody
T1 construct: extracellular domain; also called FcgRIIaR
T1 sequence (looked up): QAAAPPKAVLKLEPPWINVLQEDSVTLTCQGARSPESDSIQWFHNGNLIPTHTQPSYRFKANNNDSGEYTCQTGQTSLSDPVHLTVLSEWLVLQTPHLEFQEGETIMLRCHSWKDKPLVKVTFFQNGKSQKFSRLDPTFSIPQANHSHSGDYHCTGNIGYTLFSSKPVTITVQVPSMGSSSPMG

[2] = target: T2, FcγRIIb extracellular domain, His tag (human, UniProt P31994 43-217); assay: SPR, bound amount per captured antibody
T2 construct: extracellular domain; also called FcgRIIb
T2 sequence (looked up): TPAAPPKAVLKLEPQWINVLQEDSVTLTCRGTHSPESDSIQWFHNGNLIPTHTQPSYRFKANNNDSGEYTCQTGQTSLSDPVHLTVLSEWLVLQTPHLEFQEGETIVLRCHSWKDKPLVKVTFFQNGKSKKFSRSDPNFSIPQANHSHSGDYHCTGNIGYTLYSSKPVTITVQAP

[3] = target: T3, FcγRIa extracellular domain with C-terminal His tag (human, UniProt P12314 16-292); assay: SPR (Biacore), FcgR as analyte
T3 construct: also called FcgRIa
T3 sequence (P12314 16-292): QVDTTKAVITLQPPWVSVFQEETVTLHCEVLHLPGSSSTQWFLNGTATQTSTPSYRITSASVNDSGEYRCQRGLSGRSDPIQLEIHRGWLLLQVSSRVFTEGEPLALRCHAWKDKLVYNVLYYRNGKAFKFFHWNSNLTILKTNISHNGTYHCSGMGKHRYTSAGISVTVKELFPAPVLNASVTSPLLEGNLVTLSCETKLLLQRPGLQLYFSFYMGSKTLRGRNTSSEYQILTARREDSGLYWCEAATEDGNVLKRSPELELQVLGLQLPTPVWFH

[4] = target: T4, FcγRIIa R type extracellular domain with C-terminal His tag (human, UniProt P12318 34-217); assay: SPR (Biacore), FcgR as analyte
T4 construct: extracellular domain; also called FcgRIIaR
T4 sequence (looked up): T1 sequence (looked up)

[5] = target: T5, FcγRIIb extracellular domain with C-terminal His tag (human, UniProt P31994 43-217); assay: SPR (Biacore), FcgR as analyte
T5 construct: extracellular domain; also called FcgRIIb
T5 sequence (looked up): T2 sequence (looked up)

[6] = target: T1, FcγRIIa R type extracellular domain, …; assay: SPR, bound amount per captured antibody; remark: listed apart in the source
[7] = target: T2, FcγRIIb extracellular domain, His tag; assay: SPR, bound amount per captured antibody; remark: listed apart in the source
[8] = target: T6, FcγRIIa R type extracellular domain with C-terminal His tag (human, UniProt P12318 34-217); assay: SPR; amount bound divided by amount of IL6R-F652/IL6R-L bound, x100
T6 construct: extracellular domain; also called FcgRIIaR; not shown: His tag at the C terminus
T6 sequence (looked up): T1 sequence (looked up)

[9] = target: T7, FcγRIIb extracellular domain with C-terminal His tag (human, UniProt P31994 43-217); assay: as above
T7 construct: extracellular domain; also called FcgRIIb; not shown: His tag at the C terminus
T7 sequence (looked up): T2 sequence (looked up)

[10] = target: T8, FcgRIIb (human, UniProt P31994 43-217); assay: SPR, amount bound per captured antibody
T8 construct: extracellular domain; also called FcγRIIb
T8 sequence (looked up): T2 sequence (looked up)

B1: IL6R-2B044/IL6R-L (antibody, human IgG1, kappa)
heavy: QVQLQESGPGLVKPSETLSLTCAVSGHSISHDHAWSWVRQPPGEGLEWIGFISYSGITNYNPSLQGRVTISRDNSKNTLYLQMNSLRAEDTAVYYCARSLARTTAMDYWGEGTLVTVSSASTKGPSVFPLAPSSKSTSGGTAALGCLVKDYFPEPVTVSWNSGALTSGVHTFPAVLQSSGLYSLSSVVTVPSSSLGTQTYICNVNHKPSNTKVDKKVEPKSCDKTHTCPPCPAPELLGGDSVLLFPPKPKDTLMISRTPEVTCVVVDVSHEDPEVKFNWYVDGVEVHNAKTKPREEQYNSTYRVVSVLTVLHQDWLNGKEYKCKVSNKALPAPIEKTISKAKGQPREPQVYTLPPSRDELTKNQVSLTCLVKGFYPSDIAVEWESNGQPENNYKTTPPVLDSDGSFFLYSKLTVDKSRWQQGNVFSCSVMHEALHNHYTQESLSLSP
light: not shown
Relative FcgRIIaR-binding Activity [1]: 55.7 % of IL6R-BF648/IL6R-L | Relative FcgRIIb-binding Activity [2]: 65.5 % of IL6R-BF648/IL6R-L

B2: IL6R-BP192/IL6R-L (antibody, human IgG1, kappa, name in EU numbering)
heavy: B1 heavy with E235D, L243F, H270D, P273G, Y298D, A332K
light: not shown
notes: IgG1; alterations on IL6R-B3, EU numbering
Kd [3]: 6.6 nM | Kd [4]: 2600 nM

B3: IL6R-BP201/IL6R-L (antibody, human IgG1, kappa, name in EU numbering)
heavy: B1 heavy with E235D, G239D, L243F, P273G, A332R
light: not shown
notes: as for B2
Kd [4]: 840 nM | Kd [5]: 40 nM

B5: IL6R-2B129/IL6R-L (antibody, human IgG1, kappa)
heavy: B1 heavy with L243F, Y298E
light: not shown
Relative FcgRIIaR-binding Activity [1]: 68.4 % of IL6R-BF648/IL6R-L | Relative FcgRIIb-binding Activity [2]: 93.3 % of IL6R-BF648/IL6R-L

B6: IL6R-BP084/IL6R-L (antibody, human IgG1, kappa, name in EU numbering)
heavy: B1 heavy with L243F, V325M, A332K
light: not shown
notes: as for B2
Kd [3]: 7 nM | Kd [5]: 500 nM

B7: IL6R-BP228/IL6R-L (antibody, human IgG1, kappa, name in EU numbering)
heavy: B1 heavy with L236Y, G239D, L243F, S269Q, H270D, P273G, K328D, A332R
light: not shown
notes: as for B2
Kd [5]: 40 nM

B9: IL6R-2B118/IL6R-L (antibody, human IgG1, kappa)
heavy: B1 heavy with L243F, Q297M
light: not shown
Relative FcgRIIaR-binding Activity [1]: 93.4 % of IL6R-BF648/IL6R-L | Relative FcgRIIb-binding Activity [2]: 96.3 % of IL6R-BF648/IL6R-L

B10: IL6R-BP195/IL6R-L (antibody, human IgG1, kappa, name in EU numbering)
heavy: B1 heavy with E235D, L236Y, G239D, L243F, H270D, P273G, Y298D, K328A, A332K
light: not shown
notes: as for B2
Kd [4]: 910 nM | Kd [5]: 50 nM

B11: IL6R-BP151/IL6R-L (antibody, human IgG1, kappa, name in EU numbering)
heavy: B1 heavy with E235D, L236Y, G239D, L243F, K328A, A332R
light: not shown
notes: as for B2
Kd [5]: 40 nM

B14: IL6R-BP209/IL6R-L (antibody, human IgG1, kappa, name in EU numbering)
heavy: B1 heavy with G239D, L243F, H270D, P273G, K328A, A332R
light: not shown
notes: as for B2
Kd [3]: 39 nM | Kd [5]: 51 nM

B19: IL6R-2B045/IL6R-L (antibody, human IgG1, kappa)
heavy: B1 heavy with L243M
light: not shown
Relative FcgRIIaR-binding Activity [1]: 64.7 % of IL6R-BF648/IL6R-L | Relative FcgRIIb-binding Activity [2]: 81.1 % of IL6R-BF648/IL6R-L

Further lines, results first:

Relative FcgRIIaR-binding Activity [6]: 77 % of IL6R-F652/IL6R-L | Relative FcgRIIb-binding Activity [7]: 80.5 % of IL6R-F652/IL6R-L
B4: IL6R-PD004/IL6R-L (antibody, human IgG1, kappa)
heavy: B1 heavy with L243F, M254Y, H270P, N436Y, E441K
light: not shown

Relative FcgRIIaR-binding Activity [6]: 100 % of IL6R-F652/IL6R-L | Relative FcgRIIb-binding Activity [7]: 100 % of IL6R-F652/IL6R-L
B8: IL6R-F652/IL6R-L (antibody, human IgG1, kappa)
heavy: B1 heavy with L243F, M254Y, N436Y, E441K
light: not shown
notes: IL6R-F648 (P238D) with M252Y and N434Y

Relative FcgRIIaR-binding Activity [8]: 100 | Relative FcgRIIb-binding Activity [9]: 100
B12: IL6R-F652/IL6R-L (antibody, human IgG1, kappa)
heavy: B1 heavy with L243F, M254Y, N436Y, E441K
light: not shown
notes: human IgG1

Kd [5]: 60 nM
B13: IL6R-BP239/IL6R-L (antibody, human IgG1, kappa, name in EU numbering)
heavy: B1 heavy with E235D, L236Y, G239D, L243F, S269Q, H270D, P273G, Y298D, K328A, A332R
light: not shown
notes: as for B2

Relative FcgRIIaR-binding Activity [8]: 7.9 | Relative FcgRIIb-binding Activity [9]: 23.7
B15: IL6R-PD090/IL6R-L (antibody, human IgG1, kappa)
heavy: B1 heavy with G239R, L243F, M254Y, N436Y, E441K
light: not shown
notes: human IgG1

Relative FcgRIIaR-binding Activity [8]: 41.8 | Relative FcgRIIb-binding Activity [9]: 27.6
B16: IL6R-PD031/IL6R-L (antibody, human IgG1, kappa)
heavy: B1 heavy with L236H, L243F, M254Y, N436Y, E441K
light: not shown
notes: human IgG1

Relative FcgRIIb-binding Activity [10]: 16.7 IL6R-BP267/IL6R-L=100
B17: IL6R-BP365/IL6R-L (antibody, human IgG1, kappa, name in EU numbering)
heavy: B1 heavy with E235D, G239D, L243F, S269Y, H270E, P273G
light: not shown

Relative FcgRIIaR-binding Activity [8]: 20.6 | Relative FcgRIIb-binding Activity [9]: 10.4
B18: IL6R-PD072/IL6R-L (antibody, human IgG1, kappa)
heavy: B1 heavy with G238Q, L243F, M254Y, N436Y, E441K
light: not shown
notes: human IgG1
